Measurements taken from article PMC5529513.

Columns and labels:
ephrin-A5 Fc [1] = biological target: ephrin-A5 Fc (UniProt P52803); experiment: SPR; BIAcore T200; ephrin-A5 Fc amine-coupled on CM5 chip; EphA4 Fc proteins 500 to 50 nM in 10 mM HEPES pH 7.4, 150 mM NaCl, 3 mM EDTA, 0.05% Surfactant P20; 30 µl/min; bivalent analyte model and steady state affinity model
[2] = biological target: EphA4 Fc (wild type): human EphA4 ectodomain fused to IgG4 Fc (human) (UniProt P54764); experiment: AUC; sedimentation velocity, 10 mM potassium phosphate pH 7.6, 20 °C, 40,000 rpm, c(s) fit with SEDFIT; oligomeric state of the Fc fusion
[3] = biological target: triple mutant of EphA4 Fc (N235Q, N340Q, N408Q) (human) (UniProt P54764); experiment: as above
ephrin-A5 Fc [4] = biological target: ephrin-A5 Fc (UniProt P52803); experiment: SPR; conditions: Fc fusion
ephrin-B3 Fc = ephrin-B3 Fc (UniProt Q15768); experiment: ELISA; conditions: Fc fusion
ephrin-A5 Fc [5] = biological target: ephrin-A5 Fc (UniProt P52803); experiment: ELISA; conditions: Fc fusion

Sequence of UniProt Q15768 (Q15768 28-226): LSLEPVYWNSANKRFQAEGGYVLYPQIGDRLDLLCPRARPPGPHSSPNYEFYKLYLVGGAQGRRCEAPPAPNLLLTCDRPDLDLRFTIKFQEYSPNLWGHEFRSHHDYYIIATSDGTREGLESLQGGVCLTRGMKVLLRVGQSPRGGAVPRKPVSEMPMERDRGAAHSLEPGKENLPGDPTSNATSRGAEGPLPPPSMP

Substance | ka1 (bivalent analyte model) (ephrin-A5 Fc [1]) [M⁻¹ s⁻¹] | ka2 (bivalent analyte model) (ephrin-A5 Fc [1]) [RU^-1s^-1] | kd1 (bivalent analyte model) (ephrin-A5 Fc [1]) [s⁻¹] | kd2 (bivalent analyte model) (ephrin-A5 Fc [1]) [s⁻¹] | stoichiometry N [2] | stoichiometry N [3] | Kd (ephrin-A5 Fc [4]) [nM] | Kd (ephrin-B3 Fc) [nM] | Kd (ephrin-A5 Fc [5]) [nM]
EphA4 Fc (wild type): human EphA4 ectodomain fused to IgG4 Fc (from UniProt P54764-1 20-547) (Fc fusion) | 56300 | 0.000112 | 0.0224 | 0.00106 | 2 |  |  |  | 
triple mutant of EphA4 Fc (N235Q, N340Q, N408Q) (from UniProt P54764-1 20-547) (Fc fusion) | 115000 | 5.4e-05 | 0.0184 | 2.66e-06 |  | 2 |  |  | 
EphA4 Fc (wild type): human EphA4 ectodomain fused to IgG4 Fc (from UniProt P54764-1 20-547) |  |  |  |  |  |  | 318 | 23.9 | 0.51
